This is an account of results in IntAct's records for PubMed 18940603.

The chains are these.
B1: Ras-related protein Rab-27B (Mus musculus), Q99P58 (parent)
chain: MTDGDYDYLIKLLALGDSGVGKTTFLYRYTDNKFNPKFITTVGIDFREKRVVYDTQGADGASGKAFKVHLQLWDTAGQERFRSLTTAFFRDAMGFLLMFDLTSQQSFLNVRNWMSQLQANAYCENPDIVLIGNKADLPDQREVNERQARELAEKYGIPYFETSAATGQNVEKSVETLLDLIMKRMEKCVEKTQVPDTVNGGNSGKLDGEKPAEKKCAC
partner: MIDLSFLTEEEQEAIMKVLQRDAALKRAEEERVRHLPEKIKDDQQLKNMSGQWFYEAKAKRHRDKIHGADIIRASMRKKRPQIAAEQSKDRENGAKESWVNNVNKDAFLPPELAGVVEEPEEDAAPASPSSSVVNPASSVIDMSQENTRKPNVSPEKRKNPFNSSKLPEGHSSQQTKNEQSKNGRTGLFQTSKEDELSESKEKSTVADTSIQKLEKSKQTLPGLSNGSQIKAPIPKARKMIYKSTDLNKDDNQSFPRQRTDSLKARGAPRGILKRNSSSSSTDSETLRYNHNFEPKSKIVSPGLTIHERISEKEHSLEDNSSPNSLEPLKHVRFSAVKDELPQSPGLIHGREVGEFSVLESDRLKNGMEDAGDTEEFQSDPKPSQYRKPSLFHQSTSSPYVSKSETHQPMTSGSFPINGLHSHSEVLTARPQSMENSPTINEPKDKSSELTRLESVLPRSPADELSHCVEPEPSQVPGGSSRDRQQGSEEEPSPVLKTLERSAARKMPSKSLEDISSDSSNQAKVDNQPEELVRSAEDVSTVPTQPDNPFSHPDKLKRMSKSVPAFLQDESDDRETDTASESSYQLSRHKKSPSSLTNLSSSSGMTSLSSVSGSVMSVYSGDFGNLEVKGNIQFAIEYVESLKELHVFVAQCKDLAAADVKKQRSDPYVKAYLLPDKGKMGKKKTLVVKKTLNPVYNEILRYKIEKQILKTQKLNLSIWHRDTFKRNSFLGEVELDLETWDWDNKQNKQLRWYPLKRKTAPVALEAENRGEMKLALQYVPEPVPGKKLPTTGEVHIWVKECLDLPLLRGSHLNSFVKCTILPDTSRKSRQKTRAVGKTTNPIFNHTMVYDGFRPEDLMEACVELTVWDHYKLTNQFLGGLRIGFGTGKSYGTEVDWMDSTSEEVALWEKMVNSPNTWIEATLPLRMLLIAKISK
B2: Ras-related protein Rab-27A (Mus musculus), Q9ERI2 (parent)
chain: MSDGDYDYLIKFLALGDSGVGKTSVLYQYTDGKFNSKFITTVGIDFREKRVVYRANGPDGAVGRGQRIHLQLWDTAGQERFRSLTTAFFRDAMGFLLLFDLTNEQSFLNVRNWISQLQMHAYCENPDIVLCGNKSDLEDQRAVKEEEARELAEKYGIPYFETSAANGTNISHAIEMLLDLIMKRMERCVDKSWIPEGVVRSNGHTSADQLSEEKEKGLCGC
partner: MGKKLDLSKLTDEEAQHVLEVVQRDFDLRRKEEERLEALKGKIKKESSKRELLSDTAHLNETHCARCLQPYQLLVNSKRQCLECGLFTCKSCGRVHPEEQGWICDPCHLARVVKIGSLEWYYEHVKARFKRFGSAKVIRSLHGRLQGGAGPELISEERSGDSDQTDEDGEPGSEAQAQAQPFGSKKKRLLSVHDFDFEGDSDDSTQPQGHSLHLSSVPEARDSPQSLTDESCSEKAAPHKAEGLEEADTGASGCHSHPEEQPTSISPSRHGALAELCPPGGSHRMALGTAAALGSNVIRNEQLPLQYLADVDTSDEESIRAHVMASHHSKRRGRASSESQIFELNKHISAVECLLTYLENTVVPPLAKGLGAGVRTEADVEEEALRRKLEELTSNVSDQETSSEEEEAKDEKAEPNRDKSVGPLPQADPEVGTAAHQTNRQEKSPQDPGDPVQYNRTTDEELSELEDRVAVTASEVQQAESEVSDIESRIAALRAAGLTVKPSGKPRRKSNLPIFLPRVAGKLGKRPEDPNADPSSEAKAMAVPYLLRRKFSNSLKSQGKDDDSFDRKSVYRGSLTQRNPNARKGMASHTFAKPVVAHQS
B3: Ras-related protein Rab-27A (Mus musculus), Q9ERI2 (parent)
chain: B2 chain
partner: B1 partner
B4: Ras-related protein Rab-27A (Mus musculus), Q9ERI2 (parent)
chain: B2 chain
partner: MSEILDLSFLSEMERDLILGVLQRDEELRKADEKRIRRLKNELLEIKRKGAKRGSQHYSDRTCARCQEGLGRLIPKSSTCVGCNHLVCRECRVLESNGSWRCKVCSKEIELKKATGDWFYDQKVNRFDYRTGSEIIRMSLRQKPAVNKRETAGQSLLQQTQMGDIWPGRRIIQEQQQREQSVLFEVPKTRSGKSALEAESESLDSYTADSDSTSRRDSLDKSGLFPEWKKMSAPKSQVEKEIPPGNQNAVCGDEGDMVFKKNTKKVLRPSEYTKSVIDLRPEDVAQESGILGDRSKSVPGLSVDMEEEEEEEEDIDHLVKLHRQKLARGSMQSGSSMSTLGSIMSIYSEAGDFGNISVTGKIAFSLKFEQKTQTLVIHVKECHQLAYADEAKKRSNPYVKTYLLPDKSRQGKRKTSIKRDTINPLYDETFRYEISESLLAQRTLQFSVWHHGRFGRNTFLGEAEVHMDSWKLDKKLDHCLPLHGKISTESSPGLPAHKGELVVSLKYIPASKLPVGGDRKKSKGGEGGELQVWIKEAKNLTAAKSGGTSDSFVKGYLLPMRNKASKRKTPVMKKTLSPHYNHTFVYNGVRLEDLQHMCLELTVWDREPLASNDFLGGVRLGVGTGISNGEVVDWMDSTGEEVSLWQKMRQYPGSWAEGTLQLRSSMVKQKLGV
B5: Ras-related protein Rab-27B (Mus musculus), Q99P58 (parent)
chain: B1 chain
partner: B4 partner
B6: Ras-related protein Rab-27B (Mus musculus), Q99P58 (parent)
chain: B1 chain
partner: B2 partner

Variants of B1 are the subject of the first assay. Conditions: with sytl2_human SYTL2, Q9HCH5.
Consider C123S;C188S, for which the “effect of a mutation on the interaction” value is reported as “increasing interaction”.

Variants of B2 are the subject of another assay. The note with it: with melph_human MLPH.
With C188S, the “effect of a mutation on the interaction” value is recorded as “increasing interaction”.
On the same count and under the same terms, the result for C123S;C188S reads “increasing interaction”.

The next assay covers variants of B3. Conditions: with sytl2_human SYTL2, Q9HCH5.
With C123S;C188S, the “effect of a mutation on the interaction” value is on record as “increasing interaction”.

A further assay covers variants of B4. Conditions: with Sytl4, Q9R0Q1-1.
As for C123S, the “effect of a mutation on the interaction” value is listed as “increasing interaction”.
Take C188S: the “effect of a mutation on the interaction” value is reported as “increasing interaction”.
The same measure, in the same setting: to C123S;C188S belongs “increasing interaction”.

The next assay covers variants of B5. The note with it: with Sytl4, Q9R0Q1-1.
Take C188S: the “effect of a mutation on the interaction” value is given as “increasing interaction”.
Same read-out and setting: the result for C123S;C188S reads “increasing interaction”.
Same read-out and setting: to C123S belongs “increasing interaction”.

The next assay covers variants of B6. Conditions: with melph_human MLPH.
C123S;C188S: the “effect of a mutation on the interaction” value was “increasing interaction”.
On the same count and under the same terms, to C188S belongs “increasing interaction”.
